Assay results taken from publication PMC2701924, “Molecular cloning and expression of a novel trehalose synthase gene from Enterobacter hormaechei” (Microbial Cell Factories, 2009).

Substrate: OC[C@H]1O[C@H](O[C@H]2O[C@H](CO)[C@@H](O)[C@H](O)[C@H]2O)[C@H](O)[C@@H](O)[C@@H]1O
Experiment: initial rates, ion chromatography of products, Lineweaver-Burk
Type: biochemical, Enterobacter hormaechei
Conditions: substrate 1-200 mM, pH and temperature not stated for kinetics (standard assay 50 mM phosphate pH 6, 37°C), reverse reaction

B1: recombinant TreS (Enterobacter hormaechei trehalose synthase) (Enterobacter hormaechei) (protein)
chain: MAGWHTRAIIYQIDTALFYDLNGDGCGDIAGITAKLRYIRRMGATVIWITPFYLTPFLDEGYDVSDHLQVDPRFGKLNDIIAFIEQARELGMQVIIELLIQHTSDAHPWFQQARRNPQSPYRDYYLWSDTDDDDTPPMFPGVEKSIWTWDDEAGQYYRHMFYHHEPDLNLASPAVLKEVENIIIFWLKLGVSGFRLDAASHLTKQAGRGDEKRGLWILEHLRCLIGQRNPDAILLGEVDVEVEAYKDYFGQNDRLNLVLNFWLNKYFYVSLAEKSARPLRNAVKKMIVPPDSCCFANWLRNHDELDLEGIGKKAKQTVIDTFAPDEEMSVYQRGIRRRLAPMLNGDRKRLAFCHAVLFSLPGVPVMRYGDEIGMGDDLDLEERYAVRTPMQWAGSQGGGFSDADPETFVAPMIDHGPYRYQKINVADSLLHRNSLLHCIIDIANTRSEFPEIGVAPFRLINIDSDAVLGIYYETDTRSILTFVNFSDKPVNFTARGIRHATWTACLADKRYDDALVCGKTVALNLSGYGYRWFWTDRTALR
notes: pET30a(+) Nco I/Not I; 46 additional N-terminal residues incl; 6-His tag kept; about 65 kDa on SDS-PAGE; expressed in E. coli BL21(DE3) plysS, Ni-NTA
  Km: 75 mM
